{"source": "paper PMC6312923", "about": "(Life Science Alliance, 2018)", "key": {"recombinant PCNA": {"target": "T1, recombinant PCNA (Homo sapiens, UniProt P12004)", "T1 construct": "made in house; host or cells: Escherichia coli BL21 (DE3)", "T1 sequence (P12004 whole entry)": "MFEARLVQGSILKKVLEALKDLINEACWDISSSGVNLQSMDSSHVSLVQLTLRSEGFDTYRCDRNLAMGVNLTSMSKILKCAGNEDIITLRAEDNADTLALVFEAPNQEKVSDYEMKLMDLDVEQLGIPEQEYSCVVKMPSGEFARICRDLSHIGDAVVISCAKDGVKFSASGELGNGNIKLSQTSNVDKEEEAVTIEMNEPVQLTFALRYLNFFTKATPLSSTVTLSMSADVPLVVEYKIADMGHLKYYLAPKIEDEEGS", "assay": "FP assay, direct binding of TAMRA-labelled PIP box peptides to PCNA"}, "PCNA": {"tested_on": "PCNA", "assay": "X-ray crystal structure of PCNA/PIP peptide complexes", "assay_type": "binding, human", "details": "PCNA trimer; Cdt2 3.5 Å (6QC0), Cdt1 3.4 Å (6QCG)", "experimental": "The protein solution at 17 mg·ml^−1 was pre-incubated with an equimolar amount of peptide, and 0.1 μl of this solution was mixed with 0.1 μl of reservoir solution and equilibrated against a 30 μl reservoir. Crystals for the Cdt2 complex were obtained in 10% (wt/vol) PEG 6000 and 100 mM MES/HCl, pH 6.0. Crystals for the Cdt1 complex were obtained in 15% (wt/vol) PEG 400, 100 mM calcium acetate, and 100 mM MES/HCl, pH 6.0. Crystals appeared at 4°C within 72 h. Crystals were briefly transferred to a cryo-protectant solution containing the reservoir solution and 25% (wt/vol) PEG200 and vitrified by dipping in liquid nitrogen.\nX-ray data were collected on beamline ID29 at the European Synchrotron Radiation Facility. The images were integrated with XDS ([Kabsch, 2010]) and merged and scaled with AIMLESS ([Evans, 2011]). […] The models were built using COOT ([Emsley et al, 2010]) and refined with REFMAC ([Murshudov et al, 2011]) in iterative cycles. Model re-building and refinement parameter adjustment were performed in PDB-REDO ([Joosten et al, 2014]); homology-based hydrogen bond restraints ([van Beusekom et al, 2018]) were used at some stages of the procedure. The quality of the models was evaluated by MOLPROBITY ([Chen et al, 2010]). […]"}, "[1]": {"target": "T2, PCNA (recombinant, for the in vitro binding assays; free or loaded on DNA) (human, UniProt P12004 1-261)", "T2 construct": "PCNA, human, purified essentially as a trimer as described (Fukuda et al, 1995); also called free PCNA; PCNA^(on DNA); source: E. coli Rosetta(DE3) transformed with pT7-PCNA, purified (Resource Q, Superdex 200, Mono Q)", "T2 sequence (P12004 whole entry)": "as above", "assay": "pull-down; PCNA loaded by RFC (2 mM ATP, 37°C, 1 h) on nicked circular DNA beads, washed; beads incubated with purified Cdt1-3FLAG or CRL4^Cdt2 alone at 4°C for 1 h in HBS buffer (10 mM Hepes pH 7.4, 10 mM MgCl2, 0.2 mM EDTA, 0.05% Tween 20, 0.15 M NaCl); bound proteins by Western blot", "details": "both partners purified"}, "[2]": {"tested_on": "UV-C–damaged sites in MCF7 cells", "assay": "FRAP of GFP-tagged proteins at sites of local UV-C damage in MCF7 cells", "assay_type": "cell-based, human", "details": "GFP-tagged, UV-C 50 J/m^2"}, "free PCNA": {"tested_on": "free PCNA", "assay": "Binding of free PCNA to Cdt1 or CRL4^Cdt2 on anti-FLAG beads", "design": "species or system human", "details": "2 h at 4°C, Western blotting, three independent experiments", "text": "FLAG-tagged Cdt1 (Cdt1-3FLAG) and CRL4^Cdt2 (Cdt2-3FLAG) were expressed in insect cells and purified on anti-FLAG resin (Fig 5A)."}, "[3]": {"tested_on": "PCNA loaded on nicked circular DNA (PCNA^on DNA)", "assay": "Binding of purified Cdt1 and CRL4^Cdt2 to PCNA loaded on ncDNA beads", "design": "species or system human", "details": "RFC +, 4°C 1 h, n = 3 or n > 3", "experimental": "In our in vitro conditions, three molecules of PCNA trimer were loaded on one plasmid DNA. […] The interaction was not mediated by RFC proteins bound on ncDNA (Fig 5D, lane 6).\nFigure S5. […] The beads were then incubated with Cdt1 or CRL4^Cdt2 (Step 2; binding). (B) RFC-dependent loading of PCNA.\nClosed circular (cc) DNA beads were prepared as described ([Higashi et al, 2012]). Briefly, single-stranded DNA templates prepared using pBluescript II KS(−) were annealed with a biotinated oligonucleotide primer (5′-[…] [biotin-dT][…]-3′). After second-strand synthesis and ligation, covalently cc double-stranded DNA was purified by CsCl/EtBr density gradient centrifugation, incubated with streptavidin, and bound to biotin-sepharose beads to produce the cc DNA beads (around 100 ng per 1 μl bed volume of beads). A single nick was introduced by Nb.BbvCI (New England Biolabs) treatment to produce the ncDNA beads. As control beads, biotin-sepharose beads were incubated with streptavidin alone (sa-beads).\nThe sa-beads were treated in the same way and used as control beads. The beads were incubated with Cdt1 or CRL4^Cdt2 alone at 4°C for 1 h and washed with HBS buffer. The bound proteins were analysed on Western blotting. […] The purified nc DNA was run on 0.8% agarose gel in 1× TBE (Tris-borate-EDTA) buffer and detected with ethidium bromide."}}}
{"molecule": "MEQRRVTDFFARRR [Cdt1^PIP, Cdt1 PIP box peptide (1–14)]", "values": [{"measurement": "relative affinity for PCNA, Cdt2^PIP versus Cdt1^PIP", "setting": "recombinant PCNA", "value": "two orders of magnitude weaker"}, {"measurement": "binding stoichiometry in crystal", "setting": "PCNA", "value": "one peptide bound per monomer"}]}
{"molecule": "Cdt1-3FLAG (natural protein, human, UniProt Q9H211 1-546, looked up, Cdt1, human; also called FLAG-tagged Cdt1; Cdt1-3FLAG (WT); source: Sf21 insect cells (baculovirus), purified (DEAE flowthrough, anti-FLAG resin, 3× FLAG peptide elution); not shown: 3FLAG, C-terminal, kept) MEQRRVTDFFARRRPGPPRIAPPKLACRTPSPARPALRAPASATSGSRKRARPPAAPGRDQARPPARRRLRLSVDEVSSPSTPEAPDIPACPSPGQKIKKSTPAAGQPPHLTSAQDQDTISELASCLQRARELGARVRALKASAQDAGESCTPEAEGRPEEPCGEKAPAYQRFHALAQPGLPGLVLPYKYQVLAEMFRSMDTIVGMLHNRSETPTFAKVQRGVQDMMRRRFEECNVGQIKTVYPASYRFRQERSVPTFKDGTRRSDYQLTIEPLLEQEADGAAPQLTASRLLQRRQIFSQKLVEHVKEHHKAFLASLSPAMVVPEDQLTRWHPRFNVDEVPDIEPAALPQPPATEKLTTAQEVLARARNLISPRMEKALSQLALRSAAPSSPGSPRPALPATPPATPPAASPSALKGVSQDLLERIRAKEAQKQLAQMTRCPEQEQRLQRLERLPELARVLRSVFVSERKPALSMEVACARMVGSCCTIMSPGEMEKHLLLLSELLPDWLSLHRIRTDTYVKLDKAADLAHITARLAHQTRAEEGL", "values": [{"measurement": "stoichiometry N", "setting": "[1]", "value": "2.04 Cdt1 molecules on one PCNA trimer"}]}
{"molecule": "Cdt1: DNA replication licensing factor, FLAG-tagged, purified from insect cells; GFP-tagged in FRAP (protein, UniProt Q9H211 1-546, looked up, FLAG or eGFP tag, DNA replication licensing factor, FLAG-tagged, purified from insect cells; GFP-tagged in FRAP) DNA replication factor Cdt1: MEQRRVTDFFARRRPGPPRIAPPKLACRTPSPARPALRAPASATSGSRKRARPPAAPGRDQARPPARRRLRLSVDEVSSPSTPEAPDIPACPSPGQKIKKSTPAAGQPPHLTSAQDQDTISELASCLQRARELGARVRALKASAQDAGESCTPEAEGRPEEPCGEKAPAYQRFHALAQPGLPGLVLPYKYQVLAEMFRSMDTIVGMLHNRSETPTFAKVQRGVQDMMRRRFEECNVGQIKTVYPASYRFRQERSVPTFKDGTRRSDYQLTIEPLLEQEADGAAPQLTASRLLQRRQIFSQKLVEHVKEHHKAFLASLSPAMVVPEDQLTRWHPRFNVDEVPDIEPAALPQPPATEKLTTAQEVLARARNLISPRMEKALSQLALRSAAPSSPGSPRPALPATPPATPPAASPSALKGVSQDLLERIRAKEAQKQLAQMTRCPEQEQRLQRLERLPELARVLRSVFVSERKPALSMEVACARMVGSCCTIMSPGEMEKHLLLLSELLPDWLSLHRIRTDTYVKLDKAADLAHITARLAHQTRAEEGL", "values": [{"measurement": "FRAP behaviour at UV-C–damaged sites", "setting": "[2]", "value": "dynamic interactions"}, {"measurement": "binding of free PCNA to protein beads", "setting": "free PCNA", "value": "PCNA was detected"}, {"measurement": "bound protein", "setting": "[3]", "value": 301, "unit": "fmol"}]}
